The values that follow come from the DeepSol protein solubility set.

This series is described as follows: soluble on expression in E. coli; label from the status in PepcDB or PDB records.
Regarding “MGSDKIHHHHHHMIFKKMINEFKMEIKNNKSKINPIDVYRYSIFFRNYIESTAEDALKNGINLSLLEKSCLKESSKSLLGLKVQLKEALLEAMISYRFNGAGYILVKPKSEDEDLSKKVNSELPTGFKYLDFQKIINKRDSSYVEYLSNSKDPDDFERARVVKIDKSRVIIYENYDYVLGEQEPAYTQSLLLNICLLEQIYLEIEKRIRNYNFLFYKDEHLVGLVESLEIAKEEINVLANSKGKIFSTFFKAQEPNKSFQALSSVSDELSRELSKIKNTLNNDGIFYTASENARLEVIKYDLEFLKDAFELVKAKIGADTKEPLTRSFNEQVKGLGSSGKGDKSNYYDYLKGVQESVANACNLKLNKYYRLNMKFNELEALSYEQRLQKDNLLLDVYFKYLELIKNENLSDKAKENLKEQLSLVI”, the “soluble on expression in E. coli” value is listed as “not soluble”. The same measure for “MYAIAEDTLPARVLKELLLYRRRYPEHRQSASEADEIRRIEQVQLPRIAAFIEAGEPIEFVLPAFPAKSPNPGKVLDSRPDMAERLSLSFLNHLCQRIQLFYAPGAKITVCSDGRVFGDLVRIGDAHISAYQDALRLMIEEIGATHIGVFNLEDVRAFEAQRDNHEQLRQLLIGGYAEPLESIRETLLASEEGLLLYRAITRFLYEDGLTPDYQGSKTALQRDAKERAYGVIQRSWAWGALLADQFPRAIRLSIHPQPADSLKFGIHMMPTRDDWLTPWHGVAVNTEDRFVLMKRSEVLELGGELVQINGQPSHYRLPARAARRAAVALEHHHHHH”: “not soluble”. Turning to “MSYYHHHHHHLESTSLYKKALAYTLPQLPYAYDALEPHIDARTMEIHHTKHHQTYVDNANKALEGTEFADLPVEQLIQQLDRVPADKKGALRNNAGGHANHSMFWQIMGQGQGQNGANQPSGELLDAINSAFGSFDAFKQKFEDAAKTRFGSGWAWLVVKDGKLDVVSTANQDNPLMGEAIAGVSGTPILGVDVWEHAYYLNYQNRRPDYLAAFWNVVNWDEVSKRYAAAK”, the “soluble on expression in E. coli” value is on record as “soluble”. Then “MQRLSPGEFKTLISKERKSHFITPFALVYKTFCDLGYDQKNSDYFLNNPSEYIIAMRKNCWKEFEPFEKEFTTRMLSYLIDEERIKDMSPYDAIRDFTMEYPTHIYDLALSNTQSRRSRAGKEFESILELLMMGAGIPVDVQGAIGKSFFQKNQIGKLVDLVMPGVVQYTSNKRNTMLISAKTTLRERWQEVPEEVNRTGIREMYLATLDDSFSEETINILYEANVVVVTTVENKNFKYKNNNRVLTFEDMLQSAMELSRKWNNVSYTDSEKEEIQQSILKQIEKYSDFPYVVNYYRNRLSALFD”, with “soluble”; and “GPLGSTRAKTQEEIKREEEQAIDEVLKIEFLELALGYQLISLADMKQGGDLLERIRGIRKKIASDYGFLMPQIRIRDNLQLPPTHYEIKLKGIVIGEGMVMPDKFLAMNTGFVNREIEGIPTKEPAFGMDALWIDAKNKEEAIIQGYTIIDPSTVIATHTSELVKKYAEDFITKDEVKSLLERLAKDYPTIVEESKKIPTGAIRSVLQALLHEKIPIKDMLTILETITDIAPLVQNDVNILTEQVRARLSRVITNAFKSEDGRLKFLTFSTDSEQFLLNKLRENGTSKSLLLNVGELQKLIEGVSEEAMKVLQKGIAPVILIVEPNLRKALSNQMEQARIDVVVLSHAELDPNSNFEALGTIHIN”, with “soluble”; and “MKKILFDVDGVFLSEERCFDVSALTVYELLMDKCYLGLHSHIDWETLTDNDIQDIRNRIFQKDKILNKLKSLGLNSNWDMLFIVFSIHLIDILKKLSHDEIEAFMYQDEPVELKLQNISTNLADCFNLNEQLPLQFLDNVKVGKNNIYAALEEFATTELHVSDATLFSLKGALWTLAQEVYQEWYLGSKLYEDVEKKIARTTFKTGYIYQEIILRPVDEVKVLLNDLKGAGFELGIATGRPYTETVVPFENLGLLPYFEADFIATASDVLEAENMYPQARPLGKPNPFSYIAALYGNNRDKYESYINKQDNIVNKDDVFIVGDSLADLLSAQKIGATFIGTLTGLKGKDAAGELEAHHADYVINHLGELRGVLDNLLEHHHHHH”, with “soluble”.

With “GSMALTQVETEIVPVSVDGETLTVEAVRRVAEERATVDVPAESIAKAQKSREIFEGIAEQNIPIYGVTTGYGEMIYMQVDKSKEVELQTNLVRSHSAGVGPLFAEDEARAIVAARLNTLAKGHSAVRPIILERLAQYLNEGITPAIPEIGSLGASGDLAPLSHVASTLIGEGYVLRDGRPVETAQVLAERGIEPLELRFKEGLALINGTSGMTGLGSLVVGRALEQAQQAEIVTALLIEAVRGSTSPFLAEGHDIARPHEGQIDTAANMRALMRGSGLTVEHADLRRELQKDKEAGKDVQRSEIYLQKAYSLRAIPQVVGAVRDTLYHARHKLRIELNSANDNPLFFEGKEIFHGANFHGQPIAFAMDFVTIALTQLGVLAERQINRVLNRHLSYGLPEFLVSGDPGLHSGFAGAQYPATALVAENRTIGPASTQSVPSNGDNQDVVSMGLISARNARRVLSNNNKILAVEYLAAAQAVDISGRFDGLSPAAKATYEAVRRLVPTLGVDRYMADDIELVADALSRGEFLRAIARETDIQLR”, the “soluble on expression in E. coli” value is given as “soluble”.

In the case of “MSVEFQFQALVEDTPNEKWKAIFQQLWPGYRAWFLRSGVTGRPTYLECRQALRTYMPELVPLWEQLIELTGGGDVESRFLSLWCPPPYIAGCSQGVWFDPKGQEEPILLRNYDFAPVLLEGNLLNTRWLDQRVIAMSDCLWGALDGVNEAGLSASLSFGGRTVTGTGFGIPLVLRYILELAHTTQDAVNILKRIPVHMTYSVTLLDRKGEWNTVFVSPDRQPEVVKRHAVTNYQNAIEWPQHATATHSAERLTFLEQVLHHATNSHEVLQGLLTKPLYQDAWLRGYGTLYSAIYRPLSQKVEICWPHDYSQQSFEHFTEEQKLILLSVELEHHHHHH”, the “soluble on expression in E. coli” value was “not soluble”. On to “SDVYNNTAFFEQYMKRRYRENSPNESIEKPVFFQLIGHVQGKQILDLGCGDAKFGAELLEKGCYSYTGIEGSELMYEKAKKQLENKNGSVHFLNLKDYTYPSSTFDLVTSRLALHYIEHLDTIFQNVFQTLKTNGTFTFSVQHPVITSSFESLQTSGKRTIWLVDDYFKLGKRVEPWIDQEVIKYHRTTEEYFTLLQQAGFTITSLKEATPNPTYFQDEEEYKRRLRIPLFLLFSCTK”, for which the “soluble on expression in E. coli” value is recorded as “soluble”. For the sequence “MSLANWVASSTVTADGHHLLGNPAAKLRLVEFVSYTCPHCSHFEIESEGQLKIGMVQPGKGAIEVRNFVRDPIDMTVALITNCVPPSRFFTLHTAFMRSQAQWIGPLANSTEAQRQRWFNGTFATRTRAIASDFRFYDFMAARGMDRSTLDRCLSNEALAKKLAAETDEAINQYNVSGTPSFMIDGILLAGTHDWASLRPQILARLNEGHHHHHH”, the “soluble on expression in E. coli” value was “soluble”. Turning to “MSLKAIGFEQPFKLSDGNLFKTFNLDIPEPKVHEILVKIQSISVNPVDTKQRLMDVSKAPRVLGFDAIGVVESVGNEVTMFNQGDIVYYSGSPDQNGSNAEYQLINERLVAKAPKNISAEQAVSLPLTGITAYETLFDVFGISRNRNENEGKTLLIINGAGGVGSIATQIAKAYGLRVITTASRNETIEWTKKMGADIVLNHKESLLNQFKTQGIELVDYVFCTFNTDMYYDDMIQLVKPRGHIATIVAFENDQDLNALKPKSLSFSHEFMFARPLNQTDDMIKHHEYLEDITNKVEQNIYQPTTTKVIEGLTTENIYQAHQILESNTMIGKLVINLNEGHHHHHH”, the “soluble on expression in E. coli” value was “soluble”. As for “MQSAAVSGRLICNGRPAVDVKLKLYENEIFFDRLMEEGRTDSNGQFRVLGSKREITTIDPKLNVYHKCNYNGLCDQKFTIHIPKDYVTSGSQPSRTFDIGTLNLANNFPGQSTDCLN”, the “soluble on expression in E. coli” value is “not soluble”.

“MGSDKIHHHHHHMKKLRVPHRTKSARVVQELVRLAAGLAASGSRVEDAFWENCLTAKIHAQLRTGDDQNLESALDQLYDTDPGGYSEFMYAIEAAIECSIFTRGNHTYDVLMLAVPMLTWSRFSIPSGLIAESVLSELRGQLQVQVLADDAQLALADCLFSPDQLPRGYHLTHELARKLWSTAVTGQRDLHMNPRQLPETGRFLSDTRYLLGGIAVPQGKPMFRWQQGTAGEHKGSNVSALQFSKEQILHAWQTHGTAVLLPLFQGCAFELLMPDGFFSAWRAADRLARPYSVRATVDFLETTLGISPDRLRAVIAPFYDQWLEEYRIGFTLKDRDSVLYGIIWGLVGDEDENTDSVAQIEAALRECGVTQTILLQEHFLLEYCEECGGPLFPNVNGEIVHAEFPEEGEVAPIHLH”: the “soluble on expression in E. coli” value was “not soluble”. Take “GSPGIPGSTRMAYQHCPFDTLLILDFETTSDAANQDYPCEVIQFAIVAYDVPNDKIREDISFNKYVKPVLNRTLTKNCVDFTGIPQRSIDTADTFDVVYEQFQQWLITLGLEEGKFAFVCDSRQDLWRIAQYQMKLSNIQMPAFFRQYINLYKIFTNEMDRMGPKELSATTNIGKMNEYYDLPTIGRAHDAMDDCLNIATILQRMINMGAKVTVNELLTCCASWRRQPLVYNKEWRSSFMDAGKIFERVLPLVVTTIRAGDFRLEMYGVCRYCRKGMDVCGTSHQQTPHDLYKNEEDPIHFAKIAGYY”: the “soluble on expression in E. coli” value was “soluble”. As to “MGHHHHHHSHMSLTTSHFIPFPREMVWDWHTRKGAVARLTPPFIPLNPITQAERLADGTTIFSLPAGLKWVARHDLSGFLNGSRFTDVCLTAPVKALANWRHVHNFVDQDGGTLITDSVSTRLPASTLTGMFAYRQTQLIEDLKF”, the “soluble on expression in E. coli” value is listed as “not soluble”. In the case of “MNHPNAPFQPPMDIDAVWQHSLIRVTDAFALPPIVLRVDDAIIGTLGNFSVSTGKAKAKKTFNVCALVAAALVNGQVLEYQASFPESKRNILYFDTEQSPYHCQLVLQRILALAELPLDQQPEHLLFSHLRSIASPEERRAIIRYAIYHTPNVGLVVIDGIRDLMHDINNSAEATNLMGDLMQWTGERNIHIQTVLHLNKGDDNARGHIGTELNNKTESVLLITKDNSDADRSVVSASIIRSKPFPPFAFRLTEVDNICLRELDTDFTAKDAQPFSYQELSGEEHRTALREAFGQACELGYGDLLKRLSSSYLGVSGRPYGQTKLKELLRFLVNKRMLVKASRGRYQFNPDFHY”, the “soluble on expression in E. coli” value is on record as “not soluble”. Turning to “MGSDKIHHHHHHLSSPMRLSFLAAAFAAPLVVSASGAGAAEPTRYPLTLQTCGQTITFDRAPSRVVSIGQSSTEILYLLGLADKVVGTALWVGPVIAGYEAVDAKVPRLADNDPSFESVVGKKPDLVTNQYQWQVGPKGVVATNAQFAELKIPVYTSPADCVGKDNSEGGDGLRTSRFTTDLIYQEIEDLARIFDVSERGEVLINDLKAREAAAKKKIASLRSPVSAVFWFSSADLDIDPYVAGSDGAPGYILSVLGITNVIKSEEEWPTVGWETIAKANPTIIVAGEMTRRRFPVDDIAVKKTFLANDPVTRLMPAVQEGRIVPLDAQAMNPTIRTIEGIEVVADAVIKAGLAQ”, the “soluble on expression in E. coli” value is “not soluble”.

Take “MIKKVVNLIMTKERRTFSSEFKLQMVRLYKNGKLKNEIIRKYDLKPSIISNSIKQHQNTGPFNHQDNLKSDEKELIKLRKEVQHLKMEHDVLKQILKLILEHHHHHH”: the “soluble on expression in E. coli” value is “not soluble”. On to “MGSDKIHHHHHHMDLNEIIEKLKDILSEEKEGQKVLDRDVALALHIHPQSFACMKSRQKIPYEEILAFCAKRKISANWLFYNQAPESLIDTTNQYCYIRYFSQVHASAGGGAFNDTEACERIKLDAFWVERLGGEKEIKQIEAIAVTGDSMEPTLEDGDLIFIHRQKRQISKGGIFVIQTPHGIFVKRLQERLDGGVDILSDNSLYPTQTLERDGIEVIGRVVGALKNLE”, for which the “soluble on expression in E. coli” value is “not soluble”.

As to “MKVERGDVIRLHYTGRVKETGQIFDTTYEEVAKEAGIYNPKGIYGPVPIIVGAGHVISGLDKRLVGLEVGKKYTLEVPPEEGFGLRDPKLIKVFTMGQFRKQGIVPFPGLEVEVTTDNGRKMKGRVITVSGGRVRVDFNHPLAGKTLIYEVEIVEKIEDPIEKIKALIELRLPMIDRDKVIIEVGEKDVKVNFGEQDVDPKTLILGEILLESDIKFLGYEKVEFKPSVEELLRPKQEEPVEEEKKEEQEESEEAQSS”, the “soluble on expression in E. coli” value is listed as “soluble”.
